Here are results for six molecules from US20240262878A1, “PHOTOACTIVATABLE GASDERMIN PROTEINS” (THE BOARD OF TRUSTEES OF THE UNIVERSITY OF ILLINOIS, priority 2021, published 2024).

The labels stand for the following.
B1: m3: PhoDer mutant R42Q/K43Q (SEQ ID NO:36) (protein)
chain: MGSAFERVVRRVVQELDHGGEFIPVTSLQSSTGFQPYCLVVQQPSSSWFWKPRYKCVNLSIKDILEPDAAEPDVQRGRSFHFYDAMDGQIQGSVELAAPGQAKIAGGAAVSDSSSTSMNVYSLSVDPNTWQTLLHERHLRQPEHKVLQQLRSRGDNVYVVTEVLQTQKEVEVTRTHKREGSGRFSLPGATCLQGEGQGHLSQKKTVTIPSGSTLAFRVAQLVIDSDLDVLLFPDKKQRTFQPPATGHKRSTSEGAWPQLPSGLSMMRCLHNGGGSVIPDYFKQSFPEGYSWERSMTYEDGGICIATNDITMEGDSFINKIHFKGTNFPPNGPVMQKRTVGWEASTEKMYERDGVLKGDVKMKLLLKGGGHYRCDYRTTYKVKQKPVKLPDYHFVDHRIEILSHDKDYNKVKLYEHAVARNSTDSMDELYKGGSGGMVSKGEETITSVIKPDMKNKLRMEGNVNGHAFVIEGEGSGKPFEGIQTIDLEVKEGAPLPFAYDILTTAFHYGNRVFTKYPRGGGVPAEGAFTEDFQGLRAEVETISKELELLDRELCQLLLEGLEGVLRDQLALRALEEALEQGQSLGPVEPLDGPAGAVLECLVLSSGMLVPELAIPVVYLLGALTMLSETQHKLLAEALESQTLLGPLELVGSLLEQSAPWQERSTMSLPPGLLGNSWGEGAPAWVLLDECGLELGEDTPHVCWEPQAQGRMCALYASLALLSGLSQEPH
B2: m5: PhoDer mutant R42Q/K43Q/K51Q/R53Q/K55Q (SEQ ID NO:38) (protein)
chain: MGSAFERVVRRVVQELDHGGEFIPVTSLQSSTGFQPYCLVVQQPSSSWFWQPQYQCVNLSIKDILEPDAAEPDVQRGRSFHFYDAMDGQIQGSVELAAPGQAKIAGGAAVSDSSSTSMNVYSLSVDPNTWQTLLHERHLRQPEHKVLQQLRSRGDNVYVVTEVLQTQKEVEVTRTHKREGSGRFSLPGATCLQGEGQGHLSQKKTVTIPSGSTLAFRVAQLVIDSDLDVLLFPDKKQRTFQPPATGHKRSTSEGAWPQLPSGLSMMRCLHNGGGSVIPDYFKQSFPEGYSWERSMTYEDGGICIATNDITMEGDSFINKIHFKGTNFPPNGPVMQKRTVGWEASTEKMYERDGVLKGDVKMKLLLKGGGHYRCDYRTTYKVKQKPVKLPDYHFVDHRIEILSHDKDYNKVKLYEHAVARNSTDSMDELYKGGSGGMVSKGEETITSVIKPDMKNKLRMEGNVNGHAFVIEGEGSGKPFEGIQTIDLEVKEGAPLPFAYDILTTAFHYGNRVFTKYPRGGGVPAEGAFTEDFQGLRAEVETISKELELLDRELCQLLLEGLEGVLRDQLALRALEEALEQGQSLGPVEPLDGPAGAVLECLVLSSGMLVPELAIPVVYLLGALTMLSETQHKLLAEALESQTLLGPLELVGSLLEQSAPWQERSTMSLPPGLLGNSWGEGAPAWVLLDECGLELGEDTPHVCWEPQAQGRMCALYASLALLSGLSQEPH
B3: m6: PhoDer mutant R42E/K43E/K51E/R53E/K55E (SEQ ID NO: 39) (protein)
chain: MGSAFERVVRRVVQELDHGGEFIPVTSLQSSTGFQPYCLVVEEPSSSWFWEPEYECVNLSIKDILEPDAAEPDVQRGRSFHFYDAMDGQIQGSVELAAPGQAKIAGGAAVSDSSSTSMNVYSLSVDPNTWQTLLHERHLRQPEHKVLQQLRSRGDNVYVVTEVLQTQKEVEVTRTHKREGSGRFSLPGATCLQGEGQGHLSQKKTVTIPSGSTLAFRVAQLVIDSDLDVLLFPDKKQRTFQPPATGHKRSTSEGAWPQLPSGLSMMRCLHNGGGSVIPDYFKQSFPEGYSWERSMTYEDGGICIATNDITMEGDSFINKIHFKGTNFPPNGPVMQKRTVGWEASTEKMYERDGVLKGDVKMKLLLKGGGHYRCDYRTTYKVKQKPVKLPDYHFVDHRIEILSHDKDYNKVKLYEHAVARNSTDSMDELYKGGSGGMVSKGEETITSVIKPDMKNKLRMEGNVNGHAFVIEGEGSGKPFEGIQTIDLEVKEGAPLPFAYDILTTAFHYGNRVFTKYPRGGGVPAEGAFTEDFQGLRAEVETISKELELLDRELCQLLLEGLEGVLRDQLALRALEEALEQGQSLGPVEPLDGPAGAVLECLVLSSGMLVPELAIPVVYLLGALTMLSETQHKLLAEALESQTLLGPLELVGSLLEQSAPWQERSTMSLPPGLLGNSWGEGAPAWVLLDECGLELGEDTPHVCWEPQAQGRMCALYASLALLSGLSQEPH
B4: m4: PhoDer mutant R42E/K43E (SEQ ID NO:37) (protein)
chain: MGSAFERVVRRVVQELDHGGEFIPVTSLQSSTGFQPYCLVVEEPSSSWFWKPRYKCVNLSIKDILEPDAAEPDVQRGRSFHFYDAMDGQIQGSVELAAPGQAKIAGGAAVSDSSSTSMNVYSLSVDPNTWQTLLHERHLRQPEHKVLQQLRSRGDNVYVVTEVLQTQKEVEVTRTHKREGSGRFSLPGATCLQGEGQGHLSQKKTVTIPSGSTLAFRVAQLVIDSDLDVLLFPDKKQRTFQPPATGHKRSTSEGAWPQLPSGLSMMRCLHNGGGSVIPDYFKQSFPEGYSWERSMTYEDGGICIATNDITMEGDSFINKIHFKGTNFPPNGPVMQKRTVGWEASTEKMYERDGVLKGDVKMKLLLKGGGHYRCDYRTTYKVKQKPVKLPDYHFVDHRIEILSHDKDYNKVKLYEHAVARNSTDSMDELYKGGSGGMVSKGEETITSVIKPDMKNKLRMEGNVNGHAFVIEGEGSGKPFEGIQTIDLEVKEGAPLPFAYDILTTAFHYGNRVFTKYPRGGGVPAEGAFTEDFQGLRAEVETISKELELLDRELCQLLLEGLEGVLRDQLALRALEEALEQGQSLGPVEPLDGPAGAVLECLVLSSGMLVPELAIPVVYLLGALTMLSETQHKLLAEALESQTLLGPLELVGSLLEQSAPWQERSTMSLPPGLLGNSWGEGAPAWVLLDECGLELGEDTPHVCWEPQAQGRMCALYASLALLSGLSQEPH
B5: R7E/R10E/R11E: mutant at the well-conserved N-terminal region of GSDMD (protein, UniProt P57764 1-484, looked up, variant R7E R10E R11E)
Gasdermin-D: MGSAFEEVVEEVVQELDHGGEFIPVTSLQSSTGFQPYCLVVRKPSSSWFWKPRYKCVNLSIKDILEPDAAEPDVQRGRSFHFYDAMDGQIQGSVELAAPGQAKIAGGAAVSDSSSTSMNVYSLSVDPNTWQTLLHERHLRQPEHKVLQQLRSRGDNVYVVTEVLQTQKEVEVTRTHKREGSGRFSLPGATCLQGEGQGHLSQKKTVTIPSGSTLAFRVAQLVIDSDLDVLLFPDKKQRTFQPPATGHKRSTSEGAWPQLPSGLSMMRCLHNFLTDGVPAEGAFTEDFQGLRAEVETISKELELLDRELCQLLLEGLEGVLRDQLALRALEEALEQGQSLGPVEPLDGPAGAVLECLVLSSGMLVPELAIPVVYLLGALTMLSETQHKLLAEALESQTLLGPLELVGSLLEQSAPWQERSTMSLPPGLLGNSWGEGAPAWVLLDECGLELGEDTPHVCWEPQAQGRMCALYASLALLSGLSQEPH
B6: R137E: mutant at another helical region of GSDMD N-terminal domain (protein, UniProt P57764 1-484, looked up, variant R137E)
Gasdermin-D: MGSAFERVVRRVVQELDHGGEFIPVTSLQSSTGFQPYCLVVRKPSSSWFWKPRYKCVNLSIKDILEPDAAEPDVQRGRSFHFYDAMDGQIQGSVELAAPGQAKIAGGAAVSDSSSTSMNVYSLSVDPNTWQTLLHEEHLRQPEHKVLQQLRSRGDNVYVVTEVLQTQKEVEVTRTHKREGSGRFSLPGATCLQGEGQGHLSQKKTVTIPSGSTLAFRVAQLVIDSDLDVLLFPDKKQRTFQPPATGHKRSTSEGAWPQLPSGLSMMRCLHNFLTDGVPAEGAFTEDFQGLRAEVETISKELELLDRELCQLLLEGLEGVLRDQLALRALEEALEQGQSLGPVEPLDGPAGAVLECLVLSSGMLVPELAIPVVYLLGALTMLSETQHKLLAEALESQTLLGPLELVGSLLEQSAPWQERSTMSLPPGLLGNSWGEGAPAWVLLDECGLELGEDTPHVCWEPQAQGRMCALYASLALLSGLSQEPH

Entries after “also recorded” stand apart in the source; their conditions may differ.

The first test deals with Hela cells. As to the kind of experiment: Optogenetic activation of PhoDer, membrane-targeted jRCaMP1b calcium flare imaging and fluctuation analysis. The class given is cell-based. The settings on record: PhoDer mutants in live Hela cells vs PhoDer. Here is the method:
Cloning. Cloning and subcloning were performed using the DH5a strain of E. coli. All mammalian constructs were cloned into the pcDNA3.0 vector with a modified multiple cloning site. Plasmids were generated as follows. Gasdermin D gene was obtained from Addgene. A diffusible optogenetic GSDMD, referred to herein as “PhoDer” and set forth in SEQ ID NO: 33, was constructed according to the reported domains structure by ligating three fragments into the pcDNA3.0 vector in one reaction via Gibson Assembly (New England BioLabs). For each fragment, PCR was specifically designed to create appropriate complementation. The jRCaMP1b gene, encoding a sensitive red protein calcium indicator, was obtained from Addgene. Membrane targeted calcium indicator jRCaMP1b was constructed by ligating a PCR fragment of the calcium indicator into the restriction enzyme sites BamHI and EcoRI in a modified pcDNA3.0 vector carrying a 5′ fragment encoding the N-terminal Lyn kinase localization sequence.
Cell Culture. HeLa and RAW264.7 cells were maintained in Dulbecco's Modified Eagle Medium (DMEM) medium supplemented with 10% fetal bovine serum (FBS) and 1% penicillin and streptomycin. Cells were transfected at 50%-70% confluency using LIPOFECTAMINE® 2000 transfection reagent and incubated for 24 hours before imaging. Cells were never serum-starved. To examine endogenous inflammatory activation, RAW264.7 cells were treated with 100 ng/μL lipopolysaccharide (LPS, Invivogen) at the beginning of each experiment. Pretreatment to bias membrane composition by phosphatidylinositol 4,5-bisphosphate (PIP2) modifying enzymes was performed by incubating Hela cells in Hanks' Balanced Salt Solution (HBSS) buffer with inhibitors at 37° C. for 10 minutes to prior imaging at the following concentrations: for phosphoinositide 3-kinase (PI3K), cells were treated 10 μM wortmannin (Tocris); and for phospholipase C (PLC), cells were treated with 10 μM U73122 (Tocris). Cells were removed from the incubator and allowed to come to thermal equilibrium before being imaged in HBSS buffer at room temperature.
Fluorescence Imaging, Optogenetic Activation, and Post-Processing. All epifluorescence imaging was performed on a customized Nikon Ti2-E microscope equipped with individual control over excitation (EX) and emission (EM) filters, a fast LED light source (Lumencor) with fluid-cooled EMCCD (Andor), motorized stage, and examined under a 40× or 100× oil immersion objective under live focus tracking. For RFP, excitation (EX) and emission (EM) filter combinations (maxima/bandwidth in nm) are indicated. Cells were imaged at 12-15 second intervals. Emission intensities of individual cells were background-subtracted before normalization to zero time point, when optogenetic activation began. In the optical setup, optogenetic activation of PhoDer was performed using an EX filter at 440/20 nm for 20-30 ms across whole fields of view. This replicated the progression of endogenous activation of GSDMD observed in LPS-stimulated RAW264.7 cells. […] Where applicable, inhibitors were treated at the indicated concentration for 15 minutes prior to imaging.
Fluctuation Analysis and Quantification. To automate the objective isolation and quantitation of calcium flares, a post-processing algorithm was developed based on principles and normalization scheme detailed in work on photochromic stochastic optical fluctuation imaging (pcSOFI) (Dedecker et al. (2012) Proc. Natl. Acad. Sci. USA 109: 10909-10914). Briefly, fluctuation caused by the flares generate high autocorrelation signals in time-averaged series and yield high contrast at locales of the greatest ion flux. To truly reflect the local flux change, it is then normalized to remove dependence on the number of biosensors reporting at the given location using a scheme detailed previously (Mo et al. (2017) Nat. Methods 14 (4): 427-434). […]
As to B1, the “pore opening/closing dynamics (automated flare quantification)” value is recorded as “significantly reduced pore opening/closing dynamics; also recorded: significant changes in pore activity”.
For B2, the “pore opening/closing dynamics (automated flare quantification)” value is “significantly reduced pore opening/closing dynamics; also recorded: significant changes in pore activity”.
The same measure, in the same setting: the same measure for B3: “significantly reduced pore opening/closing dynamics”; for B4: “significantly reduced pore opening/closing dynamics”.

The test is the same for the next values; noted with them: charge-altering mutations.
With B5, the “calcium response of mutants at other putative lipid-binding sites” value is “much-reduced calcium magnitude”.
As to B6, the “calcium response of mutants at other putative lipid-binding sites” value was “either encumbering or abrogating the calcium response”.
